From US20240400657A1 (MorphoSys, published 2024)
Positions count from the first letter of the chain named.

T1: human C5aR_NT-bio peptide (human, biotin tag (position not given))
T1 construct: Chemically synthesized linear peptide (Genscript); also called human C5aR N-terminal peptide; human C5aR peptide
T1 peptide: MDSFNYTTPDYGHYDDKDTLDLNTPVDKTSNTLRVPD

T2: C5aR expressed on purified human neutrophils (human, UniProt P21730 1-350)
T2 sequence (looked up): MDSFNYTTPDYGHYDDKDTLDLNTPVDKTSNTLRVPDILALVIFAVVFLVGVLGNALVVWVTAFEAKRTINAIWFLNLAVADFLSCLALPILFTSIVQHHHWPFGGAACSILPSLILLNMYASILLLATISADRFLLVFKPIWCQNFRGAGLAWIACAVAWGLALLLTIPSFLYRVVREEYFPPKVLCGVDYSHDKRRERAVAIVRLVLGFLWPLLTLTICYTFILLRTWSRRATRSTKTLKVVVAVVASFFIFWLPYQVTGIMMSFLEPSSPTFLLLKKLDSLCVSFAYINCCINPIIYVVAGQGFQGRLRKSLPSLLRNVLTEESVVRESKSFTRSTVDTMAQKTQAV

T3: full length human C5aR stably expressed on CHO Flp-In cells (human, UniProt P21730 1-350)
T3 construct: also called human C5aR expressed on CHO cells
T3 sequence: T2 sequence (looked up)

T4: full length cynomolgus C5aR stably expressed on CHO Flp-In cells (cynomolgus monkey (Macaca fascicularis))
T4 chain: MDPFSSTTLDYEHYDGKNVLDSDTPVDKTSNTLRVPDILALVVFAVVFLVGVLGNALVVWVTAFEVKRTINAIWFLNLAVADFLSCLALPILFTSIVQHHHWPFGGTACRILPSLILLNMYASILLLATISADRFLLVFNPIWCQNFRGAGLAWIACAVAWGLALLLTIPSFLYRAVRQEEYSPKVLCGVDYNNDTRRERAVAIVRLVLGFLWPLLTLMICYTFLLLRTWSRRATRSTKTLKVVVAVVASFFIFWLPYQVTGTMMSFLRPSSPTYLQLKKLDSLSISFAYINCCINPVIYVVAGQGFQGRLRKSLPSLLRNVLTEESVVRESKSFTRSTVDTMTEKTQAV

B1: MAB #2 (antibody, human IgG1, lambda)
heavy: EVQLVESGGGLVKPGGSLRLSCAASGFTFSSYAMHWVRQAPGKGLEWVGRIKSVAQGGTTDYAAHVKGRFTISRDDSKNTLYLQMNSLKTEDTAVYYCARVSHSTFDVWGQGTLVTVSSASTKGPSVFPLAPSSKSTSGGTAALGCLVKDYFPEPVTVSWNSGALTSGVHTFPAVLQSSGLYSLSSVVTVPSSSLGTQTYICNVNHKPSNTKVDKRVEPKSCDKTHTCPPCPAPEAEGAPSVFLFPPKPKDTLMISRTPEVTCVVVDVSHEDPEVKFNWYVDGVEVHNAKTKPREEQYNSTYRVVSVLTVLHQDWLNGKEYKCKVSNKALPSSIEKTISKAKGQPREPQVYTLPPSREEMTKNQVSLTCLVKGFYPSDIAVEWESNGQPENNYKTTPPVLDSDGSFFLYSKLTVDKSRWQQGNVFSCSVMHEALHNHYTQKSLSLSPGK
light: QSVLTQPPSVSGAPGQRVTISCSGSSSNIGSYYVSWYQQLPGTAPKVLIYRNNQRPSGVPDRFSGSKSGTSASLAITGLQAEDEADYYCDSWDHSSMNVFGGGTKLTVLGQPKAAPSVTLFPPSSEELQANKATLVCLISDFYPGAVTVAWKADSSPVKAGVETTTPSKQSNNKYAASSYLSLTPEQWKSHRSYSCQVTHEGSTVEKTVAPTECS
notes: lambda 1 light chain
B2: MAB #1 (antibody, human IgG1, lambda)
heavy: B1 heavy with V54K, H103F
light: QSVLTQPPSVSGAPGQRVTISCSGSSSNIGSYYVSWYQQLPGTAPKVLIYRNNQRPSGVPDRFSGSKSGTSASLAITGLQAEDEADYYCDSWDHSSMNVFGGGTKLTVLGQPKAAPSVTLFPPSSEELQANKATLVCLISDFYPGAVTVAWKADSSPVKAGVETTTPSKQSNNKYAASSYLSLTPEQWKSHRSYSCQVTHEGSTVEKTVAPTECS
notes: lambda 1 light chain, VH3-15 framework

How the values were obtained:
[1] = target: T5, HIS6-mouse C5aR-HV1B1-GAG (mouse); assay: ELISA on coated VLPs, IgG titration
T5 construct: negative control; also called murine C5aR on VLPs; mouse C5aR expressed on virus-like-particles

[2] = target: T6, Cynomolgus FcRn p51 [1-297]_AviHis/p14 biotinylated (cynomolgus monkey, UniProt Q8SPV9 24-298; Q6T672 21-119, biotinylated in vitro with BirA (Avi tag)); assay: BLI (Octet HTX), biotinylated FcRn on SA sensors, IgG titrated, steady state fit, apparent KD, pH 6.0; * deviation from fit model; pH 6.0
T6 construct: Heterodimer; UniProt Q8SPV9 (p51)
Description: (§1) 0.5 nm of biotinylated human, cynomolgus, mouse and rat FcRn were captured on streptavidin (SA) sensors (FortéBIO, Pall Life Sciences). […] All sensorgrams were fitted using Data Analysis Software 10.0 (FortéBIO, Pall Life Sciences) to determine the apparent affinity and the data was fitted with a steady state model.

[3] = target: T1, human C5aR_NT-bio peptide; assay: BLI (Octet), apparent (bivalent)
[4] = target: T2, C5aR expressed on purified human …; assay: cell-based or functional assay
[5] = target: T3, full length human C5aR stably expressed …; assay: KinExA, MAB #1 as analyte, Flp-In CHO cells as titrant, apparent (bivalent) KD, n-curve analysis
Protocol: (§2) Apparent KD determination on C5aR-expressing cells was performed at RT with a KinExA® 3200 instrument (Sapidyne Instruments). PBS (Gibco), supplemented with BSA (1 mg/mL) and 0.02% (v/v) NaN₃ was used as assay buffer. […] After equilibration, the samples were centrifuged and the supernatants were used for analysis. […] The apparent KD was obtained using KinExA® software and by “n-curve analysis,” which fits all of the given curves to a single KD value simultaneously.

[6] = target: T4, full length cynomolgus C5aR stably …; assay: as above
Protocol: as §2

[7] = target: T5, HIS6-mouse C5aR-HV1B1-GAG; assay: ELISA, coated VLPs expressing mC5aR, IgG titration, AttoPhos fluorescence
[8] = target: T6, Cynomolgus FcRn p51 [1-297]_AviHis/p14 …; assay: BLI (Octet HTX), biotinylated FcRn on SA sensors, IgG titrated, steady state fit, apparent KD, pH 6.0; * deviation from fit model
Description: as §1

[9] = target: T2, C5aR expressed on purified human …; assay: cell-based or functional assay; remark: listed apart in the source
[10] = target: T6, Cynomolgus FcRn p51 [1-297]_AviHis/p14 …; assay: BLI (Octet HTX), biotinylated FcRn on SA sensors, IgG titrated, steady state fit, apparent KD, pH 7.2; ** slight binding at pH 7.2
Description: as §1

[11] = target: T4, full length cynomolgus C5aR stably …; assay: KinExA on Flp-In CHO cells
Protocol: as §2

Row | Binder | binding result [1] | Kd [2] [nM] | fold weaker binding affinity compared to MAB #1 [3] [fold] | Inhibition of CD11b expression, granulocytes in whole blood, 15 nM C5a: IC50 [4] [nM] | Inhibition of CD11b expression, monocytes in whole blood, 15 nM C5a: IC50 [4] [nM] | Kd [5] [nM] | Kd [6] [nM] | binding result [7] | Kd [8] [nM] | CD11b assay, granulocytes, 15 nM C5a, 20 minutes of IgG incubation: IC50 [9] [nM] | CD11b assay, granulocytes, 15 nM C5a, 300 minutes of IgG incubation: IC50 [9] [nM] | CD11b assay, granulocytes: x-fold improvement (20 min. vs 300 min.) [9] [fold] | CD11b assay, monocytes, 15 nM C5a, 20 minutes of IgG incubation: IC50 [9] [nM] | CD11b assay, monocytes, 15 nM C5a, 300 minutes of IgG incubation: IC50 [9] [nM] | CD11b assay, monocytes: x-fold improvement (20 min. vs 300 min.) [9] [fold] | Kd [10] [nM] | fold weaker binding than to full-length human C5aR [11] [fold]
1 | B1 | no binding | 30 | ~10 |  |  |  |  |  |  |  |  |  |  |  |  |  | 
2 | B2 |  |  |  | 9.8 | 4.2 | 0.13 | 2.98 | no binding (tested: ~300 nM) | 6.8 | 11 | 2.3 | 4.8 | 4 | 0.7 | 5.7 | 560 | ~20
